# Assay results reported in article PMC6598175.
# Substrate: Cc1cc(=O)oc2cc(O[C@@H]3OC[C@@H](O[C@@H]4OC[C@@H](O)[C@H](O)[C@H]4O)[C@H](O)[C@H]3O)ccc12
# Test: Substrate hydrolysis kinetics
# Type: biochemical, A. aculeatus
# Conditions: other: fluorogenic 4MU substrate, pH 5.0
protein,measurement,value
…_127619 (Aspergillus aculeatus ATCC 16872) (protein) VGLDQAAVAKGLQYFGTATDNPELTDIPYVTQLNNTADFGQITPGNSMKWDATEPSQGTFTFTNGDVIADLAEGNGQYLRCHTLVWYNQLPSWVTSGTWTNATLTAALKNHITNVVSHYKGKCLHWDVVNEALNDDGTYRTNIFYTTIGEAYIPIAFAAAAAADPDAKLFYNDYNLEYGGAKAASARAIVQLVKNAGAKIDGVGLQAHFSVGTVPSTSSLISVLQSFTALGVEVAYTEADVRILLPTTATTLAQQSSDFQALVQSCVQTTGCVGFTIWDWTDKYSWVPSTFSGYGAALPWDENLVKKPAYNGLLAG,Km,279 µM
